The text below walks through data of patent US20210214449A1 (ZOETIS SERVICES, published 2021).

Substitutions are numbered along the chain they refer to. Where two headings read alike, the source gives them in different places.

The target of one experiment is human NGF (human) (UniProt P01138). Kind of experiment: SPR (Biacore T200), 100 nM mAb on NGF chip, vs parent mAb.
The target in another experiment is rat NGF (rat) (UniProt P25427). Described as above.
For experiment [1], the target named is T1, canine NGF (canine, UniProt Q29074 110-229 (pig entry), limits assumed).
T1 chain: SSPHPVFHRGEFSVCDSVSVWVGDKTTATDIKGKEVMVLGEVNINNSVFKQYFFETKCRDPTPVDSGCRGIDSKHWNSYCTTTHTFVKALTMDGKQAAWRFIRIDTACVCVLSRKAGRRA
Put plainly: cell-based or functional assay.

Experiment [2] addresses T1, canine NGF. Kind of experiment: cell-based or functional assay.
The target of experiment [3] is T1, canine NGF. Put plainly: cell-based or functional assay.

Sequence of human NGF (human) (P01138 other isoform, or with tags, fused parts or gaps limits assumed): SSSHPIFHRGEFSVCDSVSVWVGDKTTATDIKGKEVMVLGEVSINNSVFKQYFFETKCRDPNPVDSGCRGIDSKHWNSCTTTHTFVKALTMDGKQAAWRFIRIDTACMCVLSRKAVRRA
Sequence of rat NGF (rat) (P25427 122-241 limits assumed): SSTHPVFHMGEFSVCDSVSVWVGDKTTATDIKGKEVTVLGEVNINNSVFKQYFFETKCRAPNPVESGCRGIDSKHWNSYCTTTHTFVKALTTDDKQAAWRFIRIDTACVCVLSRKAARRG

B1: can9L12VH_K98A (antibody, V domains shown)
VH: EVQLVESGGDLVKPGGSLRLSCVASGFTFSSHGMHWVRQSPGKGLQWVAVINSGGSSTYYTDAVKGRFTISRDNAKNTVYLQMNSLRAEDTAMYYCAAESVGGWEQLVGPHFDYWGQGTLVIVSS
VL: QSVLTQPTSVSGSLGQRVTISCSGSTNNIGILGASWYQLFPGKAPKLLVYGNGNRPSGVPDRFSGADSGDSVTLTITGLQAEDEADYYCQSFDTTLGAHVFGGGTHLTVL
With B1, the Percent Similarity Score (%) with human NGF (human) worked out at 8.58%; in the experiment with rat NGF (rat), 7.92%.

B2: can9L12VH_V101A (antibody, V domains shown)
VH: B1 VH with A98K, V101A
VL: B1 VL
In the case of B2, the Percent Similarity Score (%) with human NGF (human) was determined as 5.29%.

B3: ZTS-841 (antibody, V domains shown)
VH: B1 VH with A98K
VL: B1 VL
Regarding B3, in the experiment with canine NGF [1], the “IC50 (read off the curve), canine NGF-induced TF-1 cell proliferation” value is roughly 8 ng/mL. Also, the “IC50 (read off the curve), canine NGF-induced pERK-1/2 in caTrkA-CHO cells” value with canine NGF [2] was roughly 0.2 µg/ml.

B4: can9L12VH_F112A (antibody, V domains shown)
VH: B1 VH with A98K, F112A
VL: B1 VL
Consider B4, for which the Percent Similarity Score (%) in the experiment with human NGF (human) worked out at 8%.

B5: can9L12VH_W104A (antibody, V domains shown)
VH: B1 VH with A98K, W104A
VL: B1 VL
For the molecule B5, in the experiment with rat NGF (rat), the Percent Similarity Score (%) turned out to be 8.2%.

B6: ZTS-842 (antibody, V domains shown)
VH: EVQLVESGGDLVKPGGSLRLSCVASGFTFSTYGINWVRQAPGKGLQWVAYISSGGSSTYYADPVKGRFTISRDDAKNMLYLQMNSLRAEDTAIYYCAGSRYTYAYGGGYEFHFWGQGTLVTVSS
VL: QAVLNQPASVSGALGQKVTISCSGSTMDIDIFGVSWYQQLPGKAPKLLVDSDGDRPSGIPDRFSGSRSGNSGTLTITGLQAEDEADYHCQSGDSTLGALAIFGGGTHVTVL
B6: the “IC50 (read off the curve), canine NGF-induced TF-1 cell proliferation” value in the experiment with canine NGF [1] is roughly 5 ng/mL. In addition, the “IC50 (read off the curve), canine NGF-induced pERK-1/2 in caTrkA-CHO cells” value with canine NGF [2] is roughly 0.1 µg/ml.

B7: fel48L2 1.1 (antibody, V domains shown)
VH: B6 VH with E1D, S21T, D74N, S85N, R87K, A88T, I93T
VL: QAVLNQPSSVSGALGQRVTISCSGSTMDIDIFGVSWYQQIPGMAPKTIIDSDGDRPSGVPDRFSGSKSGSTGTLTITGLQAEDEADYYCQSGDSTLGALAIFGGGTHVTVLG
Take B7: the “IC50 (read off the curve), canine NGF-induced TF-1 cell proliferation” value with canine NGF [3] is roughly 7 ng/mL.
